T1: human TIGIT expressed on CHO cells (human, UniProt Q495A1 22-244)
T1 construct: also called CHO cells expressing human TIGIT
T1 sequence: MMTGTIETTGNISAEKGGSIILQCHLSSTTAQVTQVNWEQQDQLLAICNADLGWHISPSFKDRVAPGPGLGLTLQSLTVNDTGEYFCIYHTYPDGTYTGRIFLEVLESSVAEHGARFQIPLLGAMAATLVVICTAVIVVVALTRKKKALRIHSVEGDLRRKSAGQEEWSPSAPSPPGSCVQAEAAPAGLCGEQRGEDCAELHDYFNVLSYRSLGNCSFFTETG

T2: His-tagged TIGIT protein (Homo sapiens (Human), UniProt Q495A1 22-141)
T2 construct: SPR analyte; not shown: His tag
T2 sequence: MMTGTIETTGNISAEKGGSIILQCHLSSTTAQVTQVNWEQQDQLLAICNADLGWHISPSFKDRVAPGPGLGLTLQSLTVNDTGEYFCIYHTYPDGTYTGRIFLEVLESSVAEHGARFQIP

T3: LAG-3 Fc fusion protein having a biotin-label (Homo sapiens (Human), UniProt P18627 29-450, limits assumed, biotin label (site not stated))
T3 construct: not shown: Fc
T3 sequence: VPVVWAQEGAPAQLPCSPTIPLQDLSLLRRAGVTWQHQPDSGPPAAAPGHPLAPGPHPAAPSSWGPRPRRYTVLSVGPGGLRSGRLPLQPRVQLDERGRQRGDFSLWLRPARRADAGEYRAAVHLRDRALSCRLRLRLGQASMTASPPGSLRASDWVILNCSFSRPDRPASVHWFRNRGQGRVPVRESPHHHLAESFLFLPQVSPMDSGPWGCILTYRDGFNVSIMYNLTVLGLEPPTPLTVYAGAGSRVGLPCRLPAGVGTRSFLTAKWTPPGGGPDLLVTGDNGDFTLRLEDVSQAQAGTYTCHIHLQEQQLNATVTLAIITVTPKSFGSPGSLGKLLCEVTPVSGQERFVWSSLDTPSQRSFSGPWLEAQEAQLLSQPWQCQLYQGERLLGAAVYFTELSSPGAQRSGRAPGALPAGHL

T4: His-tagged LAG-3 protein (Homo sapiens (Human), UniProt P18627 29-450, limits assumed)
T4 construct: SPR analyte; not shown: His tag
T4 sequence: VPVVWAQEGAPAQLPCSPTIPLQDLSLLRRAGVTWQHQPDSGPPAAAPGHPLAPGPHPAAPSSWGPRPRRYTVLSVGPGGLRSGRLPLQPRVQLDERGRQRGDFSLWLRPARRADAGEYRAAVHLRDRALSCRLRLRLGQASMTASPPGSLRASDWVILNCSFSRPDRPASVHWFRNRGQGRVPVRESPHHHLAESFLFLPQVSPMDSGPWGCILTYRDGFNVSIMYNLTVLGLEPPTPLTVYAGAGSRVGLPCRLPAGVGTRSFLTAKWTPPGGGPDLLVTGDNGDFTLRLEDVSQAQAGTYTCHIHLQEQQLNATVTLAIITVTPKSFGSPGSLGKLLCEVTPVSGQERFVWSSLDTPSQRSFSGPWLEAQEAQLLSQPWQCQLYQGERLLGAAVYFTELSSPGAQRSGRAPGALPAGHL

T5: human LAG-3 expressed on CHO cells (human, UniProt P18627 29-525)
T5 construct: also called CHO cells expressing human LAG-3
T5 sequence: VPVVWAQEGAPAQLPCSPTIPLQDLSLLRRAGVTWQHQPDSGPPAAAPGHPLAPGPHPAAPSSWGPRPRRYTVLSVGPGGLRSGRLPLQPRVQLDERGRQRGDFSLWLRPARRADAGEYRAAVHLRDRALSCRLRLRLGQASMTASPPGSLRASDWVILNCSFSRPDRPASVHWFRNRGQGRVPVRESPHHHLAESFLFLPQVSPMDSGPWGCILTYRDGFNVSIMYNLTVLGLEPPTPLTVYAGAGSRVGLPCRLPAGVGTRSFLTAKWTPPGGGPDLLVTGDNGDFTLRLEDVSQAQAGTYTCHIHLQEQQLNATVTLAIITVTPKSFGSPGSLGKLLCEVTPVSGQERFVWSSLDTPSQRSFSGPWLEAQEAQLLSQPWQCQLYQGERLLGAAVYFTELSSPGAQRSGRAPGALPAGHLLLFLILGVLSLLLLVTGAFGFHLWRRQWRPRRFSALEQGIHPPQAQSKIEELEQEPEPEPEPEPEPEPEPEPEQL

B1: AS19584VH28 HCAb (antibody, human IgG4 S228P, V domains shown)
VH: EVQLVESGGGLVQPGGSLRLSCAASGYKYGVYSMGWFRQAPGKGLEGVSAICSGGRTTYSDSVKGRFTISRDNSNQILYLQMNSLRAEDTAVYYCAARPLWTGDCDLSSSWYKTWGQGTLVTVSS
notes: positive control for TIGIT; also called anti-TIGIT AS19584VH28 HCAb
B2: VHH2 HCAb (antibody, human IgG4 S228P, V domains shown)
VH: EVQLVESGGGLVQPGGSLRLSCAASGYTVSSYCMGWFRQAPGKGREGVSAIDSDGSVSYADSVKGRFTISKDNSKNTLYLQMNSLRAEDTAVYFCAADLCWVDQDQGEYNTWGQGTLVTVSS
notes: positive control for LAG-3; also called anti-LAG-3 VHH2 HCAb

Experiments:
[1] = target: T1, human TIGIT expressed on CHO cells; experiment: FACS competition on CHO cells expressing human TIGIT, blocked ligand biotinylated hCD155 Fc; column TIGIT / Ligand competition (IC50 nM)
Procedure: (§1) Each mixture was equilibrated for 30 minutes at room temperature, and washed three times with FACS buffer (PBS containing 1% BSA). PE/Cy5 Streptavidin secondary antibody was then added to each mixture and incubated for 15 minutes at room temperature. Subsequently, the cells were washed again with FACS buffer and analyzed by flow cytometry. Data was analyzed with PRISM™ (GraphPad Software, San Diego, Calif.) using non-linear regression, and IC₅₀ values were calculated.

[2] = target: T1, human TIGIT expressed on CHO cells; experiment: FACS on CHO cells expressing human TIGIT; column TIGIT / Cell binding (EC50 nM)
Procedure: (§2) The mixture was equilibrated for 30 minutes at room temperature, and washed three times with FACS buffer (PBS containing 1% BSA). FITC-conjugated anti-human Fc antibody (Jackson ImmunoResearch) used as secondary antibody was then added and the mixture was incubated for 15 minutes at room temperature. Cells were washed again with FACS buffer and analyzed by flow cytometry. Data were analyzed with PRISM™ (GraphPad Software, San Diego, Calif.) using non-linear regression, and EC₅₀ values were calculated.

His-tagged TIGIT protein = target: T2, His-tagged TIGIT protein; experiment: SPR (BIACORE T200), His-tagged TIGIT as analyte over captured binder; column TIGIT / Affinity (nM)
From the text: Binding curves at different analyte concentrations were used to calculate the kinetic parameters kₒₙ, koff and Kd (FIGS. 13A-13K).

[3] = target: T3, LAG-3 Fc fusion protein having a …; experiment: FACS competition, binding of biotinylated LAG-3 Fc to MHC class II on A375 cells blocked; column LAG-3 / Ligand competition (IC50 nM)
Procedure: as §1

His-tagged LAG-3 protein = target: T4, His-tagged LAG-3 protein; experiment: SPR (BIACORE T200), His-tagged LAG-3 as analyte over immobilized binder; column LAG-3 / Affinity (nM)
From the text: Binding curves at different analyte concentrations were used to calculate the kinetic parameters kₒₙ, koff and Kd (FIGS. 14A-14K).

[4] = target: T5, human LAG-3 expressed on CHO cells; experiment: FACS on CHO cells expressing human LAG-3; column LAG-3 / Cell binding (EC50 nM)
Procedure: as §2, with “and” for “and the mixture was”, “Data was” for “Data were”

| Binder | IC50 [1] [nM] | EC50 [2] [nM] | Kd (His-tagged TIGIT protein) [nM] | IC50 [3] [nM] | Kd (His-tagged LAG-3 protein) [nM] | EC50 [4] [nM] |
| --- | --- | --- | --- | --- | --- | --- |
| B1 | 8.61 | 4.99 | 0.44 | – | – | – |
| B2 | – | – | – | 11 | 0.45 | 1.82 |

Reference: patent US20200369770A1 (NANJING LEGEND BIOTECH, published 2020)
